Source: patent US12479928B2, “Anti-cancer peptide” (Minerva Biotechnologies Corporation, priority 2014, dated 2025)
Where “and” joins values, the source holds several entries; their conditions need not be identical. Equal values may be shown once.

What was measured:
[1] = system: OV-90 ovarian cancer cell line; test: RT-PCR of metastatic markers after culture in NME7-AB, OV-90; assay type: cell-based, human; conditions: 72 or 144 hours
From the text: (§1) FIGS. 37A-37C show graphs of RT-PCR measurements of metastatic markers in cancer cells after being cultured in a serum-free media containing NME7-AB compared to the standard media.

[2] = system: MDA-MB breast cancer cell line; test: RT-PCR of metastatic markers after culture in NME7-AB, MDA-MB; assay type: cell-based, human; conditions: serum-free media containing NME7-AB
Experimental: as §1
Ovarian cancer cells, pancreatic cancer cells and melanoma cells were also cultured in NME7-AB and were transformed to a more metastatic state after as few as 3 days in culture.

[3] = system: T47D human breast cancer cells xenografted; test: Xenograft of NME7-AB cultured floater cells in nu/nu mice with daily NME7-AB injection; assay type: in vivo, female nu/nu athymic mice
Experimental: The freshly harvested floater metastatic cells were xenografted into the flank of female nu/nu athymic mice that have been implanted with 90-day slow release estrogen pellets. Floater cells were xenografted with 10,000, 1,000, 100 or 50 cells each. Half of the mice in each group of 6 were also injected daily with 32 nM NME7-AB near the original implantation site. The parent T47D cells that were cultured in RPMI media without NME7-AB were also implanted into mice at 6 million, 10,000 or 100 as controls. Mice implanted with the NME7-induced floater cells developed tumors even when as few as 50 cells were implanted. Mice that were implanted with the floater cells and that received daily injections of NME7-AB also developed remote tumors or remote metastases in various organs (FIG. 20-25). 11 out of the 12 mice, or 92%, that were injected with human NME7-AB after implantation of the NME7-AB cultured cancer cells developed tumors at the injection site. Only 7 out of the 12 mice, or 58%, that were not injected with human NME7-AB after implantation developed tumors. […] None of the mice that were not injected with NME7-AB developed multiple, visible tumors.
The freshly harvested floater metastatic cells are xenografted into the flank of female nu/nu athymic mice that have been implanted with 90-day slow release estrogen pellets. Floater cells were xenografted as 10,000, 1,000, 100 or 50 cells each. Half of the mice in each group of 6 were also injected daily with 32 nM NME7-AB near the original implantation site. The parent T47D cells that were cultured in RPMI media without NME7-AB were also implanted into mice as 6 million, 10,000 or 100 as controls. Mice implanted with the NME7-induced floater cells developed tumors even when as few as 50 cells were implanted. Mice that were implanted with the floater cells and that received daily injections of NME7-AB also developed remote tumors or remote metastases in various organs (FIG. 20-25). 11 out of the 12 mice, or 92%, that were injected with human NME7-AB after implantation of the NME7-AB cultured cancer cells, developed tumors at the injection site. Only 7 out of the 12 mice, or 58%, that were not injected with human NME7-AB after implantation developed tumors. 9 out of the 11 mice, or 82%, that got tumors and were injected with human NME7-AB developed multiple tumors remote from the injection site. None of the mice that were not injected with NME7-AB developed multiple, visible tumors.

[4] = system: Human stem cells (iPS cat #SC101a-1); test: Human stem cell growth and pluripotency in NME7-AB or NM23-H1 dimers; assay type: cell-based; conditions: for pluripotent stem cell growth / differentiation: 8 nM in Minimal Stem Cell Media
Experimental: For testing recombinant NME7-AB for ability to maintain pluripotency and inhibit differentiation, a soluble variant of NME7, NME7-AB, was generated and purified. Human stem cells (iPS cat #SC101a-1, System Biosciences) were grown per the manufacturer's directions in 4 ng/ml bFGF over a layer of mouse fibroblast feeder cells for four passages. These source stem cells were then plated into 6-well cell culture plates (Vita™, Thermo Fisher) that had been coated with 12.5 ug/well of a monoclonal anti-MUC1* antibody, MN-C3. Cells were plated at a density of 300,000 cells per well. The base media was Minimal Stem Cell Media consisting of: 400 ml DME/F12/GlutaMAX I (Invitrogen #10565-018), 100 ml Knockout Serum Replacement (KO-SR, Invitrogen #10828-028), 5 ml 100×MEM Non-essential Amino Acid Solution (Invitrogen #11140-050) and 0.9 ml (0.1 mM) β-mercaptoethanol (55 mM stock, Invitrogen #21985-023). The base media can be any media. In a preferred embodiment, the base media is free of other growth factors and cytokines. To the base media was added either 8 nM of NME7-AB or 8 nM NM23-H1 refolded and purified as stable dimers. Media was changed every 48 hours and due to accelerated growth, had to be harvested and passaged at Day 3 post-plating.
Cell counts at the first harvest verified that culture in NME7 produced 1.4-times more cells than culture in NM23-H1 dimers.

[5] = system: SK-OV3 ovarian cancer cell line; test: RT-PCR of metastatic markers after culture in NME7-AB, SK-OV3; assay type: cell-based, human; conditions: 72 or 144 hours
From the text: as §1

B1: NME7-AB: recombinant human NME7 devoid of the DM10 domain, NDPK A and B domains, about 33 kDa monomer (protein)
chain: MEKTLALIKPDAISKAGEIIEIINKAGFTITKLKMMMLSRKEALDFHVDHQSRPFFNELIQFITTGPIIAMEILRDDAICEWKRLLGPANSGVARTDASESIRALFGTDGIRNAAHGPDSFASAAREMELFFPSSGGCGPANTAKFTNCTCCIVKPHAVSEGLLGKILMAIRDAGFEISAMQMFNMDRVNVEEFYEVYKGVVTEYHDMVTEMYSGPCVAMEIQQNNATKTFREFCGPADPEIARHLRPGTLRAIFGKTKIQNAVHCTDLPEDGLLEVQYFFKILDN
- metastatic marker expression after culture in NME7-AB [1]: increase expression of metastatic markers CXCR4 and NME7-X1
- metastatic marker expression after culture in NME7-AB [2]: increased expression of metastatic markers CDH1 aka E-cadherin and SOX2
- number of implanted NME7-induced floater cells that developed tumors ([3]; cells pre-cultured in NME7-AB): ≤ 50 cells
- mice that developed tumors at the injection site ([3]; injected daily with 32 nM NME7-AB, 11 out of 12 mice): 92%
- mice that developed multiple tumors remote from the injection site ([3]; injected daily with NME7-AB, 9 out of 11 mice with tumors): 82% and 80%
- engraftment rate of cancer cells cultured in NME7-AB ([3]; xenografted into test animals): over 90%
- pluripotent stem cell growth / differentiation [4]: fully supported human stem cell growth, pluripotency, and resisted differentiation
- pluripotent stem cell growth / differentiation ([4]; listed as NME7): no differentiation even when 100% confluent
- cell number relative to culture in NM23-H1 dimers ([4]; 8 nM, cell counts at first harvest): 1.4 times
- metastatic marker expression after culture in NME7-AB [5]: increase expression of metastatic markers CHD1, SOX2 and NME7-X1
